# Laboratory results as given in article PMC9482650, “Quantitative fragmentomics allow affinity mapping of interactomes” (Nature Communications, 2022).
# T1: LNX2_4, Q8N448
# T1 sequence (Q8N448 595-690, limits assumed, looked up): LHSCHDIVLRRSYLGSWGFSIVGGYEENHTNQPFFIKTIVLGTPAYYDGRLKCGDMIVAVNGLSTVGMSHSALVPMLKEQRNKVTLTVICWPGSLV
# T2: MAGI2_1, Q86UL8
# T2 sequence (Q86UL8 12-111, limits assumed, looked up): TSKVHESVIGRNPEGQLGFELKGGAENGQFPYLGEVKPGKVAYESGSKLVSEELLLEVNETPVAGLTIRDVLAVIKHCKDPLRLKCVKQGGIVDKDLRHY
# T3: MPDZ_3, O75970
# T3 sequence (O75970 372-473, limits assumed, looked up): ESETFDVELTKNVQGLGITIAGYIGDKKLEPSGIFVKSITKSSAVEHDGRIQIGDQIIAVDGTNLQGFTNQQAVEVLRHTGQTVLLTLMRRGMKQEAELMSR
# T4: MPDZ_6, O75970
# T4 sequence (O75970 1003-1099, limits assumed, looked up): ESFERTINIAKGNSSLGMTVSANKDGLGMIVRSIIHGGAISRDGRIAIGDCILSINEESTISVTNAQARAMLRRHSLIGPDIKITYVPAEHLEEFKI
# T5: PDZD2_3, O15018
# T5 sequence (O15018 581-682, limits assumed, looked up): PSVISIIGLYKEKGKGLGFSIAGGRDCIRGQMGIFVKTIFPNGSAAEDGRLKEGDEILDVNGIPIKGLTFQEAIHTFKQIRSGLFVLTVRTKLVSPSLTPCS
# T6: PDZD2_5, O15018
# T6 sequence (O15018 2617-2716, limits assumed, looked up): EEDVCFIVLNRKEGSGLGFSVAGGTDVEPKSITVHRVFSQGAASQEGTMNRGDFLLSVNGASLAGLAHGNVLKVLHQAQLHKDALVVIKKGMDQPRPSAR
# T7: PDZD2_6, O15018
# T7 sequence (O15018 2745-2839, limits assumed, looked up): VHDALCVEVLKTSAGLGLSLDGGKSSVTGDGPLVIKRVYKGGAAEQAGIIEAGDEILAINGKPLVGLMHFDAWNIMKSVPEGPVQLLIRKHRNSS
# T8: PDZD7_2, Q9H5P4
# T8 sequence (Q9H5P4 205-303, limits assumed, looked up): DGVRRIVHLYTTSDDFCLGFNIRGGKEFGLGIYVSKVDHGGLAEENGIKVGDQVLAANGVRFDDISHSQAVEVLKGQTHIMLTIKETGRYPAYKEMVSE
# T9: SHANK2, Q9UPX8
# T9 sequence (Q9UPX8 621-730, limits assumed, looked up): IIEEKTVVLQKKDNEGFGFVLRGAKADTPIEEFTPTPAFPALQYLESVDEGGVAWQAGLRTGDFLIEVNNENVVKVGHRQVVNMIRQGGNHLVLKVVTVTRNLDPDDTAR
# T10: SHROOM2, Q13796
# T10 sequence (Q13796 21-118, limits assumed, looked up): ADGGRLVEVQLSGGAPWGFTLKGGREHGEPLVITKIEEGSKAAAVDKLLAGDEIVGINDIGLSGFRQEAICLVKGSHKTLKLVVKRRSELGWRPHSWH
# T11: SYNPO2L, Q9H987
# T11 sequence (Q9H987 1-98, limits assumed, looked up): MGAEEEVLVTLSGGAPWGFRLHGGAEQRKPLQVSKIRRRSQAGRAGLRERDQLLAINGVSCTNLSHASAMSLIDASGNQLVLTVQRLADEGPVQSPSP
# T12: TJP3_2, O95049
# T12 sequence (O95049 190-282, limits assumed, looked up): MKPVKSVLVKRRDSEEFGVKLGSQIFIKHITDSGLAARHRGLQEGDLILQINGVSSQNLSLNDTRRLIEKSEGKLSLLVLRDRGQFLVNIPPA
# T13: USH1C_3, Q9Y6N9
# T13 sequence (Q9Y6N9 447-547, limits assumed, looked up): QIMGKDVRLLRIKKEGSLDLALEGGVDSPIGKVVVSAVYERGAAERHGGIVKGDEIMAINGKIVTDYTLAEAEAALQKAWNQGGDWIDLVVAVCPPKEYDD
# B1: FZD7, O75084 (peptide)
# chain: SHSSKGETAV
# Target: CARD14, Q9BXL6
# Assay: holdup assay
# Parameters: key: below the threshold = too weak to quantify, mostly under pKd 3.1 to 4
# Settings: plain residues with an end cap or a label only (N-terminal biotin on a linker: ttds)
# CARD14, Q9BXL6, sequence (Q9BXL6 558-663): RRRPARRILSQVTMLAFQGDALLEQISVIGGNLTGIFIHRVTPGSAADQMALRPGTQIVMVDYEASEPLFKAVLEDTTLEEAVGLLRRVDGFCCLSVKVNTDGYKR
row,pKd,Binder
1,below the threshold,B1

# Target: LIMK1, P53667
# Assay: holdup assay
# Parameters: key: below the threshold = too weak to quantify, mostly under pKd 3.1 to 4
# Settings: plain residues with an end cap or a label only (N-terminal biotin on a linker: ttds)
# LIMK1, P53667, sequence (P53667 155-268): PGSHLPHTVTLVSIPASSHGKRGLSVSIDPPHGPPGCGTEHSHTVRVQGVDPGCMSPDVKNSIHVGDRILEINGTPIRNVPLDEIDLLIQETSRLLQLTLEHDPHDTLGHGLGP
row,pKd,Binder
1,below the threshold,B1

# Target: LMO7, Q8WWI1
# Assay: holdup assay
# Parameters: key: below the threshold = too weak to quantify, mostly under pKd 3.1 to 4
# Settings: plain residues with an end cap or a label only (N-terminal biotin on a linker: ttds)
# LMO7, Q8WWI1, sequence (Q8WWI1 1037-1138): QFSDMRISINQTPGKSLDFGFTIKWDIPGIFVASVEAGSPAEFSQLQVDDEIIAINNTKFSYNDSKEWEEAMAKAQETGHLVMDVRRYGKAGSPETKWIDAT
row,pKd,Binder
1,below the threshold,B1

# Target: T1, LNX2_4, Q8N448
# Assay: holdup assay
# Parameters: key: below the threshold = too weak to quantify, mostly under pKd 3.1 to 4
# Settings: plain residues with an end cap or a label only (N-terminal biotin on a linker: ttds)
row,pKd,Binder
1,below the threshold,B1

# Target: MAGI1_5, Q96QZ7
# Assay: holdup assay
# Parameters: key: below the threshold = too weak to quantify, mostly under pKd 3.1 to 4
# Settings: plain residues with an end cap or a label only (N-terminal biotin on a linker: ttds)
# MAGI1_5, Q96QZ7, sequence (Q96QZ7 986-1098): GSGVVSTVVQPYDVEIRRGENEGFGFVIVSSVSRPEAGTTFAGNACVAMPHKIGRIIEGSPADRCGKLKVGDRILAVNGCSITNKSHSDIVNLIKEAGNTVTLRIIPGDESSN
row,pKd,Binder
1,below the threshold,B1

# Target: T2, MAGI2_1, Q86UL8
# Assay: holdup assay
# Parameters: key: below the threshold = too weak to quantify, mostly under pKd 3.1 to 4
# Settings: plain residues with an end cap or a label only (N-terminal biotin on a linker: ttds)
row,pKd,Binder
1,4.39,B1

# Target: T3, MPDZ_3, O75970
# Assay: holdup assay
# Parameters: key: below the threshold = too weak to quantify, mostly under pKd 3.1 to 4
# Settings: plain residues with an end cap or a label only (N-terminal biotin on a linker: ttds)
row,pKd,Binder
1,below the threshold,B1

# Target: T4, MPDZ_6, O75970
# Assay: holdup assay
# Parameters: key: below the threshold = too weak to quantify, mostly under pKd 3.1 to 4
# Settings: plain residues with an end cap or a label only (N-terminal biotin on a linker: ttds)
row,pKd,Binder
1,below the threshold,B1

# Target: NHERF2_1, Q15599
# Assay: holdup assay
# Parameters: key: below the threshold = too weak to quantify, mostly under pKd 3.1 to 4
# Settings: plain residues with an end cap or a label only (N-terminal biotin on a linker: ttds)
# NHERF2_1, Q15599, sequence (Q15599 9-91): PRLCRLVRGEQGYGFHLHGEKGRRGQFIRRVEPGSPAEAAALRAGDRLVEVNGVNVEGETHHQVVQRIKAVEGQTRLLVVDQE
row,pKd,Binder
1,below the threshold,B1

# Target: O60759
# Assay: holdup assay
# Parameters: key: below the threshold = too weak to quantify, mostly under pKd 3.1 to 4
# Settings: plain residues with an end cap or a label only (N-terminal biotin on a linker: ttds)
row,pKd,Binder
1,below the threshold,B1

# Target: PARD3B_2, Q8TEW8
# Assay: holdup assay
# Parameters: key: below the threshold = too weak to quantify, mostly under pKd 3.1 to 4
# Settings: plain residues with an end cap or a label only (N-terminal biotin on a linker: ttds)
# PARD3B_2, Q8TEW8, sequence (Q8TEW8 376-471): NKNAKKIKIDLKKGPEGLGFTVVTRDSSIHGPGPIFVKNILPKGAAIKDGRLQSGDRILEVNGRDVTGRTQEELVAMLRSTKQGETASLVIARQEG
row,pKd,Binder
1,4.42,B1

# Target: T5, PDZD2_3, O15018
# Assay: holdup assay
# Parameters: key: below the threshold = too weak to quantify, mostly under pKd 3.1 to 4
# Settings: plain residues with an end cap or a label only (N-terminal biotin on a linker: ttds)
row,pKd,Binder
1,below the threshold,B1

# Target: T6, PDZD2_5, O15018
# Assay: holdup assay
# Parameters: key: below the threshold = too weak to quantify, mostly under pKd 3.1 to 4
# Settings: plain residues with an end cap or a label only (N-terminal biotin on a linker: ttds)
row,pKd,Binder
1,below the threshold,B1

# Target: T7, PDZD2_6, O15018
# Assay: holdup assay
# Parameters: key: below the threshold = too weak to quantify, mostly under pKd 3.1 to 4
# Settings: plain residues with an end cap or a label only (N-terminal biotin on a linker: ttds)
row,pKd,Binder
1,below the threshold,B1

# Target: T8, PDZD7_2, Q9H5P4
# Assay: holdup assay
# Parameters: key: below the threshold = too weak to quantify, mostly under pKd 3.1 to 4
# Settings: plain residues with an end cap or a label only (N-terminal biotin on a linker: ttds)
row,pKd,Binder
1,below the threshold,B1

# Target: PDZD9, Q8IXQ8
# Assay: holdup assay
# Parameters: key: below the threshold = too weak to quantify, mostly under pKd 3.1 to 4
# Settings: plain residues with an end cap or a label only (N-terminal biotin on a linker: ttds)
# PDZD9, Q8IXQ8, sequence (Q8IXQ8 23-120): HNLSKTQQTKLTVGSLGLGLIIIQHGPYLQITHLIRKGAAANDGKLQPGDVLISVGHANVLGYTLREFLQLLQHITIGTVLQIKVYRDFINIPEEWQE
row,pKd,Binder
1,below the threshold,B1

# Target: PDZRN4_2, Q6ZMN7
# Assay: holdup assay
# Parameters: key: below the threshold = too weak to quantify, mostly under pKd 3.1 to 4
# Settings: plain residues with an end cap or a label only (N-terminal biotin on a linker: ttds)
# PDZRN4_2, Q6ZMN7, sequence (Q6ZMN7 389-498): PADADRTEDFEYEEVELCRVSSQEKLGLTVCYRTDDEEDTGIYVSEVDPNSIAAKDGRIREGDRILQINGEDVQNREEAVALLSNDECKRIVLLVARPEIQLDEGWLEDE
row,pKd,Binder
1,below the threshold,B1

# Target: Q8TEW0
# Assay: holdup assay
# Parameters: key: below the threshold = too weak to quantify, mostly under pKd 3.1 to 4
# Settings: plain residues with an end cap or a label only (N-terminal biotin on a linker: ttds)
row,pKd,Binder
1,below the threshold,B1

# Target: Q96HC4
# Assay: holdup assay
# Parameters: key: below the threshold = too weak to quantify, mostly under pKd 3.1 to 4
# Settings: plain residues with an end cap or a label only (N-terminal biotin on a linker: ttds)
row,pKd,Binder
1,below the threshold,B1

# Target: SCRIB_4, Q14160
# Assay: holdup assay
# Parameters: key: below the threshold = too weak to quantify, mostly under pKd 3.1 to 4
# Settings: plain residues with an end cap or a label only (N-terminal biotin on a linker: ttds)
# SCRIB_4, Q14160, sequence (Q14160 1095-1204): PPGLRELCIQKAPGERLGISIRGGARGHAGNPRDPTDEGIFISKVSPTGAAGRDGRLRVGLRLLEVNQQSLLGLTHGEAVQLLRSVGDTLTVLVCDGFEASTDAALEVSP
row,pKd,Binder
1,below the threshold,B1

# Target: T9, SHANK2, Q9UPX8
# Assay: holdup assay
# Parameters: key: below the threshold = too weak to quantify, mostly under pKd 3.1 to 4
# Settings: plain residues with an end cap or a label only (N-terminal biotin on a linker: ttds)
row,pKd,Binder
1,below the threshold,B1

# Target: T10, SHROOM2, Q13796
# Assay: holdup assay
# Parameters: key: below the threshold = too weak to quantify, mostly under pKd 3.1 to 4
# Settings: plain residues with an end cap or a label only (N-terminal biotin on a linker: ttds)
row,pKd,Binder
1,below the threshold,B1

# Target: T11, SYNPO2L, Q9H987
# Assay: holdup assay
# Parameters: key: below the threshold = too weak to quantify, mostly under pKd 3.1 to 4
# Settings: plain residues with an end cap or a label only (N-terminal biotin on a linker: ttds)
row,pKd,Binder
1,below the threshold,B1

# Target: T12, TJP3_2, O95049
# Assay: holdup assay
# Parameters: key: below the threshold = too weak to quantify, mostly under pKd 3.1 to 4
# Settings: plain residues with an end cap or a label only (N-terminal biotin on a linker: ttds)
row,pKd,Binder
1,below the threshold,B1

# Target: T13, USH1C_3, Q9Y6N9
# Assay: holdup assay
# Parameters: key: below the threshold = too weak to quantify, mostly under pKd 3.1 to 4
# Settings: plain residues with an end cap or a label only (N-terminal biotin on a linker: ttds)
row,pKd,Binder
1,below the threshold,B1
